Results taken from patent publication US11938195B2, “Upconversion nanoparticle peptide conjugates” (BP InnoMed Limited, priority 2021, dated 2024).
Where no end group is shown, it is not given here. [ ]: non-standard residue; d: D form. Ahx = NCCCCCC(=O)O

Assays:
[1] = system: p65; experiment: Western blot of p65 (NF-κB) in C666 cells; assay type: cell-based
Source text: NF-κB signaling pathway is critical for the survival of EBV-infected tumor cells. Here we investigated if our nanoprobes could affect this oncogenic pathway. EBV-positive LCL3 and C666 cells were used as models, EBV-negative HK1 cells were used as control and Western blot was used to analyze the protein expression of p65, a major transcription factor in the NF-κB family. […] GAPDH and Histone are regarded as internal standards in cytosolic and nuclear fractions, respectively. […] This is consistent with the cellular uptake results.
Western blotting: EBV-positive C666, LCL3 and EBV-negative HK1 cell pellets were treated with phosphatase and protease inhibitors at 0-4° C. for 30 min. The total protein concentrations were calculated by protein absorbance. The protein was resolved by sodium dodecyl sulfate-polyacrylamide gel electrophoresis (SDS-PAGE) and transferred to cellulose filter membranes. The membranes were blocked with 3% BSA in Tris-buffered saline in 0.1% Tween 20 (TBST) for 1 h with gentle shaking and subsequently incubated with primary antibodies (1:1000) in 3% BSA in TBST at 4° C. for overnight. After rinsing with TBST buffer three times, the blots were then incubated with corresponding secondary anti-rabbit antibody (1:6000) for 1 h. After that, the blots were rinsed again with 3% BSA in TBST for 1 h shaking at room temperature. Lastly, the density of bands was determined by image analysis system after washing with TBST buffer three times.

[2] = system: C666 cells; experiment: Cellular uptake by ICP-MS, C666; assay type: cell-based
Description: (§1) Subsequently, the quantitative distribution and uptake efficiency of nanoprobes in vitro in C666, HK1, HK1-LMP1 and LCL3 cells lines were monitored and investigated by evaluating the lanthanide content originating from the nanoprobes using inductively coupled plasma mass spectrometry (ICP-MS).
(§2) After co-incubation, the cell culture medium containing the nanoprobes was removed, and the exposed cells were further rinsed with 1 mL PBS three times. After that, the cells were trypsinized and re-dispersed in 1 mL cell medium. The cells were collected by centrifugation at 1500 rpm, and the cell pellet was digested in 100 μL concentrated HNO3 (69%) at room temperature for 3 h. Then, each cell pellet in centrifuge tube was filled up to 10 mL with 1% HNO3. The cellular uptake of all the nanoprobes was recorded via an Agilent 7500 series ICP-MS instrument. All ICP experiments were performed three times, and the values of Gd concentration (ppm) obtained were calculated and averaged.

[3] = system: LMP1-positive LCL3 cells; experiment: MTT cytotoxicity assay, LCL3 cells; assay type: cell-based; conditions: 24 h incubation
Description: The inhibitory effects of the novel nanoprobes on both EBV-infected cancer cells and non-EBV-infected cancer cells were investigated by MTT assays to test the cell viability. The cytotoxic assays were performed in EBV-positive C666 and NPC43 cells, LMP1-positive LCL3 and Raji cells, and the LMP1-positive and -negative HK1 cell pair. HK1, MRC-5 and HeLa cell lines are EBV-negative and they serve as negative controls. […] In addition, UCNP-P4, EBNA1-specific peptide coated UCNPs was included as control group, so the ability of inhibiting EBV-related cancer cells can be directly compared with UCNP-Pn [n=5, 6 and 7 (SEQ ID NO: 5, 6, 7)].
In vitro cytotoxic assays: The cytotoxicity of our nanoprobes was determined by MTT reduction assay. The cells (3×10^3 per well) were seeded onto 96-well plates and incubated overnight, followed by treatment with Pn [n=5, 6 and 7 (SEQ ID NO: 5, 6, 7)], UCNP, UCNP-Pn [n=5, 6 and 7 (SEQ ID NO: 5, 6, 7)] and UCNP-P4 individually at 37° C., 5% CO2 for 24 h in dark. The cell monolayers were rinsed with PBS and 50 μL of MTT, 3-(4,5-dimethylthiazol-2-yl)-2,5-diphenyltetrazolium bromide solution (0.5 mg mL^−1) was added per well and the cells were further incubated for 3 h at 37° C. […] The absorptions of the formazan crystal solutions at 540 nm and 690 nm were measured using a dual-wavelength Labsystem Multiskan microplate reader (Merck Eurolab).

[4] = system: EBV- and LMP1-negative HK1 cells; experiment: MTT cytotoxicity assay, HK1 cells; assay type: cell-based; design: unit not given here; conditions: 24 h incubation
[5] = system: LCL3 cells; experiment: Cellular uptake by ICP-MS, LCL3; assay type: cell-based
Description: as §1, §2

[6] = system: EBV-negative MRC-5 cells; experiment: MTT cytotoxicity assay, MRC-5 cells; assay type: cell-based, human; design: unit not given here; conditions: 24 h incubation
[7] = Peptide release from nanoprobes under various pH buffers (UV-vis absorbance); assay type: physicochemical; conditions: 24 h in buffer, 0.5 mg/mL
Source text: The stability and capability of cleavage of the pH linker were also studied. […] More importantly, TEM images of UCNP-P5 at different pH buffers were observed and investigated in FIG. 1, providing direct evidence on pH-responsive peptide release from UCNP. […]

[8] = system: C666-tumor; conditions: 12.5 mg/kg i.v.; 3-36 h after injection; 980 nm
Description: (§3) In vivo upconversion luminescence imaging was performed using UCNP-P5 under 980 nm excitation (laser power: 3 W). C666-tumor-bearing and HeLa-tumor-bearing nude mice were injected with UCNP-P5 through the tail vein.
(§4) In vivo upconversion luminescence imaging: C666 and HeLa cells (10^6 cells) were inoculated subcutaneously in BALB/c female nude mice (6 weeks). When the tumors reached 0.2-0.3 cm in diameter, the C666-tumor-bearing and HeLa-tumor-bearing mice were anesthetized and injected intravenously with UCNP-P5 (150 μl, 12.5 mg/kg per mouse). The in vivo upconversion luminescence images were recorded at different time points (3 h, 6 h, 12 h, 24 h, 36 h).

[9] = system: HeLa derived xenograft; conditions: 12.5 mg/kg i.v.; 3-36 h after injection; 980 nm
Description: as §3, §4

[10] = Peptide release from nanoprobes under various time intervals (UV-vis absorbance); assay type: physicochemical; conditions: 0.5 mg/mL
Source text: The stability and capability of cleavage of the pH linker were also studied. […] More importantly, TEM images of UCNP-P5 at different pH buffers were observed and investigated in FIG. 1, providing direct evidence on pH-responsive peptide release from UCNP.

## UCNP-P5: UCNP is NaGdF4:Yb^3+, Er^3+@NaGdF4 and plurality of polypeptides is Ahx-YFMVFGGRrRKGGFWLY (SEQ ID NO: 5), pH-sensitive imine linker ([Ahx]YFMVFGGR[dR]RKGGFWLY; also: conjugated to UCNP NaGdF4:Yb3+,Er3+@NaGdF4 via pH-sensitive imine linker)
[1]
  Decreased p65 expression, nuclear fraction: 89%
[2]; 50 μg/mL
  Cellular uptake (Gd amount by ICP-MS): largest amount of cellular uptake
[2]; 24 h incubation
  Gd amount relative to UCNP-P4: over twice
[3]
  IC50 in LCL3: 19 mg/mL
[4]
  IC50 in HK1: 1027
[5]; 50 μg/mL
  Cellular uptake (Gd amount by ICP-MS): largest amount of cellular uptake
[5]; 24 h incubation
  Gd amount relative to UCNP-P4: over twice
[6]
  IC50 in MRC-5: 1280
[7]; pH 5.0
  Peptide release rate: 84.6%
[7]; pH 5.5
  Peptide release rate: 56.1%
[7]; pH 6.0
  Peptide release rate: 34.8%
[7]; pH 6.5
  Peptide release rate: 20.9%
[7]; pH 7.0
  Peptide release rate: 6.1%
[7]; pH 7.4
  Peptide release rate: 0%
[8]
  Upconversion luminescence signal from the tumor site: persisted even 24 h after the injection
[9]
  Upconversion luminescence signal from the tumor site: only observed at 3 h after the injection
[10]; 1 h
  Peptide release rate: 0%
[10]; 3 h
  Peptide release rate: 0%
[10]; 6 h
  Peptide release rate: 0.1%
[10]; 12 h
  Peptide release rate: 0.5%
[10]; 24 h
  Peptide release rate: 0.7%
[10]; 3 day
  Peptide release rate: 0.8%
[10]; 5 day
  Peptide release rate: 1.1%
[10]; 7 day
  Peptide release rate: 1.9%
